# Laboratory results as given in patent US20130086703.
# T1: human Keratin 17
# T1 chain: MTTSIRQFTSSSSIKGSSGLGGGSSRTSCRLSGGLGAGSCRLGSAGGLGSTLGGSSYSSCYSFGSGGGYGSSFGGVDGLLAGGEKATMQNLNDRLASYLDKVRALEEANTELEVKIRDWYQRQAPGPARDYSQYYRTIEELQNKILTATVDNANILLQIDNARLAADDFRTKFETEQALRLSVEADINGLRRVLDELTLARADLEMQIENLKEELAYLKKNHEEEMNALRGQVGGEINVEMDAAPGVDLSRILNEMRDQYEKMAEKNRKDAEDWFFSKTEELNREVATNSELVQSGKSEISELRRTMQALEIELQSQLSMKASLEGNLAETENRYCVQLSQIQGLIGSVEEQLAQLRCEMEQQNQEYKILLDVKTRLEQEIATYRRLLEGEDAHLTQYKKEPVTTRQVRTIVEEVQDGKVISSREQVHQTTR
# Molecular target: T1, human Keratin 17
protein,measurement,value
RgpB (protein) YTPVEEKENGRMIVIVPKKYEEDIEDFVDWKNQRGLRTEVKVAEDIASPVTANAIQQFVKQEYEKEGNDLTYVLLVGDHKDIPAKITPGIKSDQVYGQIVGNDHYNEVFIGRFSCESKEDLKTQIDRTIHYERNITTEDKWLGQALCIASAEGGPSADNGESDIQHENIIANLLTQYGYTKIIKCYDPGVTPKNIIDAFNGGISLANYTGHGSETAWGTSHFGTTHVKQLTNSNQLPFIFDVACVNGDFLYNVPCFAEALMRAQKDGKPTGTVAIIASTINQSWASPMRGQDEMNEILCEKHPNNIKRTFGGVTMNGMFAMVEKYKKDGEKMLDTWTVFGDPSLLVRTLVPTKMQVTAPANISASAQTFEVACDYNGAIATLSDDGDMVGTAIVKDGKAIIKLNESIADETNLTLTVVGYNKVTVIKDVKVEG,enzymatic degradation products detected by mass spectrometry (on spot profiling),peptides consisting of the amino acid sequences shown by SEQ ID NOs: 6-10 (peptides 8-12) were newly identified as RgpB degradation products of human Keratin 17
